Reference: patent US20190322720A1
Blank lines part the entries; values can stand above or below the substance they belong to.

How the values were obtained:
[1] = biological target: MUC5AC expressed by CFPAC-1 pancreatic tumor cells (human) (UniProt P98088); experiment: rosetting assay, antibody-coupled beads on CFPAC-1 cells
[2] = biological target: MUC5AC expressed by CFPAC-1 pancreatic tumor cells (human) (UniProt P98088); experiment: immunofluorescence, fixed and permeabilized CFPAC-1 cells, 2 µg/ml
[3] = biological target: MUC5AC expressed by CFPAC-1 pancreatic tumor cells (human) (UniProt P98088); experiment: FACS, CFPAC cells, 2 µg/ml FITC antibody
[4] = biological target: MUC5AC expressed by LS174T colorectal tumor cells (human) (UniProt P98088); experiment: flow cytometry, LS174T colorectal tumor cells
MUC5AC expressed by LS174T colorectal tumor cells (human), sequence (P98088 other isoform, or with tags, fused parts or gaps limits assumed, change not shown): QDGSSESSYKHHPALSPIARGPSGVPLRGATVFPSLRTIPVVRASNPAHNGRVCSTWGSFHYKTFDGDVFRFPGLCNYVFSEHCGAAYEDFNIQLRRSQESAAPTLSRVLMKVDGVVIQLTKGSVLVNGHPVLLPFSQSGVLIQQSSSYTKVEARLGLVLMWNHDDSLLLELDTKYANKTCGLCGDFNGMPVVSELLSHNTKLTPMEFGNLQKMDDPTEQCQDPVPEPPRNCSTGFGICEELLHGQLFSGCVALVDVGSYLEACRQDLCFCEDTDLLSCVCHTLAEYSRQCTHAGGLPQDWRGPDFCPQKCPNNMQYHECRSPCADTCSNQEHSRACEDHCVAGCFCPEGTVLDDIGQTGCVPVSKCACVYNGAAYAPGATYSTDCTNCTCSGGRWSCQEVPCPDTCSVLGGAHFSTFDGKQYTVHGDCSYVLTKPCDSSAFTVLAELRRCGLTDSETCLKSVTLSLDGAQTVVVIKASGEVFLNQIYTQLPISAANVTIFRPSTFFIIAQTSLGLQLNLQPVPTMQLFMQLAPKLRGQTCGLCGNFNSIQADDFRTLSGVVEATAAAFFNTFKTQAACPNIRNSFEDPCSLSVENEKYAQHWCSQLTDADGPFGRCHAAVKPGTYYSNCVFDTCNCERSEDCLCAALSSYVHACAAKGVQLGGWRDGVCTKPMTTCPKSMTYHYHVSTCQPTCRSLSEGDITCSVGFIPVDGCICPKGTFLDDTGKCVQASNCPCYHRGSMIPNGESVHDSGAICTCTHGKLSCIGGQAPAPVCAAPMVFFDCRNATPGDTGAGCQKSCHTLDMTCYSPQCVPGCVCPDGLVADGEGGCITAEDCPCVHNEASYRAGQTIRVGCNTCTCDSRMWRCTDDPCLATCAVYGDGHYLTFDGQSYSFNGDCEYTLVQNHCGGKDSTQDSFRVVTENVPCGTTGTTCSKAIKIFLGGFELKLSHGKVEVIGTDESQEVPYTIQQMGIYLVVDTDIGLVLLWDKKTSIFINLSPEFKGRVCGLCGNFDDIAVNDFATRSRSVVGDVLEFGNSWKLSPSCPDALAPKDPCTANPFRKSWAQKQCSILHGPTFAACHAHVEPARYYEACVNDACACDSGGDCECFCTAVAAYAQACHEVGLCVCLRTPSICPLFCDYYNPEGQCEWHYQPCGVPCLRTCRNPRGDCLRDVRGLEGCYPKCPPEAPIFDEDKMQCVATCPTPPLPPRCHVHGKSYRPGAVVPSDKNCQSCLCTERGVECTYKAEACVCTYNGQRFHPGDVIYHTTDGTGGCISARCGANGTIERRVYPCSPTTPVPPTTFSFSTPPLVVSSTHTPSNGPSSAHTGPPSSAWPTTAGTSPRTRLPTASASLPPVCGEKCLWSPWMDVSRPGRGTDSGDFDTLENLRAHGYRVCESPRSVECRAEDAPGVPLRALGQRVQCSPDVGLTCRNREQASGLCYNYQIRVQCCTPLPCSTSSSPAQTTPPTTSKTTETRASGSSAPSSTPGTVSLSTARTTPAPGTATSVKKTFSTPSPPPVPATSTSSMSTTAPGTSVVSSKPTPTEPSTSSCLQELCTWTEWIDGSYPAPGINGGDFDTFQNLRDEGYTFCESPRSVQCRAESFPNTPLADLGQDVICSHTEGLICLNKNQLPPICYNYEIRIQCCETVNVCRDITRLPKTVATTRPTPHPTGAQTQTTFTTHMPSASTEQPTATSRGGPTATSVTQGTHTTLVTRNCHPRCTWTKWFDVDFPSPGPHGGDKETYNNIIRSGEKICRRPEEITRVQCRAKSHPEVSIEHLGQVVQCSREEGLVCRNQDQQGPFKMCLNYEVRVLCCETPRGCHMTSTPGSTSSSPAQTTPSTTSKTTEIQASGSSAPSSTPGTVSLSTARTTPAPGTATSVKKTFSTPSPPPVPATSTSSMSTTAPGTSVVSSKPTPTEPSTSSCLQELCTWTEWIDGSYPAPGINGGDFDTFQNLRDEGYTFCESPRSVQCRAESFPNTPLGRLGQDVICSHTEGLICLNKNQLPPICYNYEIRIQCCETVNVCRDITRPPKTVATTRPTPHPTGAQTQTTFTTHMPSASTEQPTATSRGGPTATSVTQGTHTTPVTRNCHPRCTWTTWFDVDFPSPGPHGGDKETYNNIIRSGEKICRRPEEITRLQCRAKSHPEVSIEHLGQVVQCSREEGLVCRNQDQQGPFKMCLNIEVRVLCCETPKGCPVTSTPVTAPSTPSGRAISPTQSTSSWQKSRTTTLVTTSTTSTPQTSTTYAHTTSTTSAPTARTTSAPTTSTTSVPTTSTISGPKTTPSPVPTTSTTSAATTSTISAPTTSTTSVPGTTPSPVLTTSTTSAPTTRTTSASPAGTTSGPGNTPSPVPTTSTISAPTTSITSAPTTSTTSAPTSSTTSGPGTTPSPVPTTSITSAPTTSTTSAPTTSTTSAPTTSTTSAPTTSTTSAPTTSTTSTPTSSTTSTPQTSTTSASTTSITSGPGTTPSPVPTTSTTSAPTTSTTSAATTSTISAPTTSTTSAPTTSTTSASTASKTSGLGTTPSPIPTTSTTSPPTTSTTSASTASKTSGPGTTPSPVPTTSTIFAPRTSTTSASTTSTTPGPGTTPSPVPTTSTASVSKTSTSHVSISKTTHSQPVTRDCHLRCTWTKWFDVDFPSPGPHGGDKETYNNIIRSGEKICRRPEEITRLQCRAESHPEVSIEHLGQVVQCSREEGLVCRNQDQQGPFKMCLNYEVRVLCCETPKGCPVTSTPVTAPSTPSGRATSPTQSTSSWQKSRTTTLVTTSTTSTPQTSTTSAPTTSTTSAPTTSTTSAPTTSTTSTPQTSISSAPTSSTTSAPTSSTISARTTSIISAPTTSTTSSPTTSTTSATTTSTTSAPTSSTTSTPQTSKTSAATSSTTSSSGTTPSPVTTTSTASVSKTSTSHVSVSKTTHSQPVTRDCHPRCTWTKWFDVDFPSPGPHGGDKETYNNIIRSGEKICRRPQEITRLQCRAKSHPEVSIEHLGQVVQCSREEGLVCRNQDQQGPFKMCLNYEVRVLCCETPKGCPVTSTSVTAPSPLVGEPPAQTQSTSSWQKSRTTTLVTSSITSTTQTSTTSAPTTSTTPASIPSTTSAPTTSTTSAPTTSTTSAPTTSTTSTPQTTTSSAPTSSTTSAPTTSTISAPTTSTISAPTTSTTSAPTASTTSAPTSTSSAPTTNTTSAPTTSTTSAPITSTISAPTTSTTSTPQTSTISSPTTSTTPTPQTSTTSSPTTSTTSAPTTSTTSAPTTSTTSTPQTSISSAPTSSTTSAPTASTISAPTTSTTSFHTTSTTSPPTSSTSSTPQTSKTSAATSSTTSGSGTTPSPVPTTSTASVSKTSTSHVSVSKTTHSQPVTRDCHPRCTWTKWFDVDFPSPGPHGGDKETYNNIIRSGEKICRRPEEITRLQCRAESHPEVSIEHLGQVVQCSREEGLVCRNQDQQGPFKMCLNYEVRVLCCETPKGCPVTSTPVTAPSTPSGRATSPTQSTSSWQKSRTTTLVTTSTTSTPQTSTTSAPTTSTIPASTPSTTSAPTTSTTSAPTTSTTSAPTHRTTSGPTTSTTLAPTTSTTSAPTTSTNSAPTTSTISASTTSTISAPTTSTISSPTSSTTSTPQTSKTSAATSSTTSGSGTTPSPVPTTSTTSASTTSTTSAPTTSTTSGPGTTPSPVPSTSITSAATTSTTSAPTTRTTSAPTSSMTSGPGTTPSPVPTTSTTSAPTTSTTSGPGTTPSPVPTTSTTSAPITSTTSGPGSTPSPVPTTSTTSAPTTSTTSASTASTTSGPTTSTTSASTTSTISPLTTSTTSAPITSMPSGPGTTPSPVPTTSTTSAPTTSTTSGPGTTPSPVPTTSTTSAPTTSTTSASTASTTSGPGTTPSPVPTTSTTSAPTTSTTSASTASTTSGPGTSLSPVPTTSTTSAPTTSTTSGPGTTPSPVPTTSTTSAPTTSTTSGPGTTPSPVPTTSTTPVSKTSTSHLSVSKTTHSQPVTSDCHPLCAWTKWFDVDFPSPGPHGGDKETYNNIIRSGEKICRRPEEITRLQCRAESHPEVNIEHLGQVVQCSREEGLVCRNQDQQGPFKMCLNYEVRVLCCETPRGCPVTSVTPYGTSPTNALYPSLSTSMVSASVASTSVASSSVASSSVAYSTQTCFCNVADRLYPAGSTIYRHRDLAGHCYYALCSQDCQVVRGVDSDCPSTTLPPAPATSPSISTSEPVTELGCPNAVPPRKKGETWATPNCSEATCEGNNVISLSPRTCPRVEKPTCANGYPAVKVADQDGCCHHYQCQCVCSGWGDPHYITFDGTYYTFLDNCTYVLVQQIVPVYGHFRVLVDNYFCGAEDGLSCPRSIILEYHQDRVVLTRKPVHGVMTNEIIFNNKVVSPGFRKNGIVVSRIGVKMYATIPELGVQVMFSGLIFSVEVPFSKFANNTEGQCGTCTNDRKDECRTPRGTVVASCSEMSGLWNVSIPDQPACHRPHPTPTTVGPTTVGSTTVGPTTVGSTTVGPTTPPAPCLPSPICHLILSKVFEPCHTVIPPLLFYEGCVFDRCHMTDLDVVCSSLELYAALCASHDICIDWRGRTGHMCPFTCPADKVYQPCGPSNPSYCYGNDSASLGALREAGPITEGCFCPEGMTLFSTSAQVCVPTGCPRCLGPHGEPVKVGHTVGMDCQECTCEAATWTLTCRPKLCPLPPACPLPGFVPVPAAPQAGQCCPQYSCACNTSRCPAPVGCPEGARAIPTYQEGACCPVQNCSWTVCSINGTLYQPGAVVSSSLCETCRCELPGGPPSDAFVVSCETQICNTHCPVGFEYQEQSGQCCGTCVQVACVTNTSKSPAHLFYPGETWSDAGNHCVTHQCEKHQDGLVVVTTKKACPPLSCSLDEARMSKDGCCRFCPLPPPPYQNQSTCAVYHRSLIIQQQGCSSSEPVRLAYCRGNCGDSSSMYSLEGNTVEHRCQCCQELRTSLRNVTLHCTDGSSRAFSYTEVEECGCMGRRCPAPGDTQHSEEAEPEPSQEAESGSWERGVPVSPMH

MUC5AC (human) [5] = biological target: MUC5AC (human) (UniProt P98088); experiment: FACS, SW480 cells, 2 µg/ml FITC antibody
MUC5AC (human), sequence (P98088 other isoform, or with tags, fused parts or gaps limits assumed): as the sequence (P98088 other isoform, or with tags, fused parts or gaps limits assumed, change not shown) above

[6] = biological target: MUC5AC expressed by LS174T colorectal tumor cells (human) (UniProt P98088); experiment: FACS, LS174 cells, 2 µg/ml FITC antibody
MUC5AC (human) [7] = biological target: MUC5AC (human) (UniProt P98088); experiment: flow cytometry, Colo-205 colorectal tumor cells
MUC5AC (human) [8] = biological target: MUC5AC (human) (UniProt P98088); experiment: flow cytometry, SW480 colorectal tumor cells
[9] = biological target: MUC5AC expressed by CFPAC-1 pancreatic tumor cells (human) (UniProt P98088); experiment: flow cytometry, CFPAC-1 pancreatic tumor cells
MUC5AC (human) [10] = biological target: MUC5AC (human) (UniProt P98088); experiment: FACS, Colo-205 cells, 2 µg/ml FITC antibody

MUC5AC expressed by CFPAC-1 pancreatic tumor cells (human), sequence (P98088 other isoform, or with tags, fused parts or gaps limits assumed): as the sequence (P98088 other isoform, or with tags, fused parts or gaps limits assumed, change not shown) above

Rosetted cells (>8 beads) [1]: 0%
Substance: human IgG (antibody)

% of cells stained [2]: < 5%
Substance: 2-11M1 (Abcam Inc.) (antibody)

% of cells stained [2]: 100%
Substance: 1-13M1 (Abcam Inc.) (antibody)

Percent positive [3]: 1.79%
% Cells Stained [4]: 3.85%
mfi [4]: 35 mfi
Percent positive (MUC5AC (human) [5]): 3.38%
Percent positive [6]: 3.85%
% Cells Stained (MUC5AC (human) [7]): 2.33%
mfi (MUC5AC (human) [7]): 34 mfi
% Cells Stained (MUC5AC (human) [8]): 3.38%
mfi (MUC5AC (human) [8]): 56 mfi
% Cells Stained [9]: 1.79%
mfi [9]: 25 mfi
Percent positive (MUC5AC (human) [10]): 2.33%
Substance: Isotype control antibody
